In patent US20240294650A1 (Alector, published 2024):

Tests used:
[1] = target: T1, His tag-conjugated recombinant ProS (human, UniProt P07225 42-676, limits assumed); test: ELISA, captured Ab, ProS-His 10 ug/ml, no MerTK
T1 construct: bought; also called Protein S; ProS1 (R&D systems, Cat #9489-PS-100)
T1 sequence (looked up): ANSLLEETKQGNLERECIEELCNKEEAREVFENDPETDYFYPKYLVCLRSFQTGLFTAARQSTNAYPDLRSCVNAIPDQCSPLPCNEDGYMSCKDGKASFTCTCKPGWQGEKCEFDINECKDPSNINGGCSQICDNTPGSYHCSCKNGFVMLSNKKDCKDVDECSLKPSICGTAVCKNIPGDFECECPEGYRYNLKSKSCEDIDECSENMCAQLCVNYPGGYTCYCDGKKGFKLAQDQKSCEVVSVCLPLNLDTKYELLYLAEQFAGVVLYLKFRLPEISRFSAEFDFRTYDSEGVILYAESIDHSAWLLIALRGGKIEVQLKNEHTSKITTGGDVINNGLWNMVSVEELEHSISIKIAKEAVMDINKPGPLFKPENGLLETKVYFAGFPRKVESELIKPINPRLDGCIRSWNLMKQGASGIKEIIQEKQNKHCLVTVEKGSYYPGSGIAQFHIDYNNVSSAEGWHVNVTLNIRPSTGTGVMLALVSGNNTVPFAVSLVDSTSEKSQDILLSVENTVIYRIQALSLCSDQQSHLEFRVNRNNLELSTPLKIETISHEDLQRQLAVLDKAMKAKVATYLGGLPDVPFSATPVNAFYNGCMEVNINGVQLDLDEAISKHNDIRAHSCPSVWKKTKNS

[2] = target: T2, MerTK C-terminal ECD Half-and-half chimera (human); test: SPR, construct supernatant over immobilised Ab
T2 construct: tested as culture supernatant; also called MerTK C-term half-and-half chimera; MerTK C-terminal ECD (FN1-FN2-JM) + Axl N-terminal ECD (NT-Ig1-Ig2)
T2 chain: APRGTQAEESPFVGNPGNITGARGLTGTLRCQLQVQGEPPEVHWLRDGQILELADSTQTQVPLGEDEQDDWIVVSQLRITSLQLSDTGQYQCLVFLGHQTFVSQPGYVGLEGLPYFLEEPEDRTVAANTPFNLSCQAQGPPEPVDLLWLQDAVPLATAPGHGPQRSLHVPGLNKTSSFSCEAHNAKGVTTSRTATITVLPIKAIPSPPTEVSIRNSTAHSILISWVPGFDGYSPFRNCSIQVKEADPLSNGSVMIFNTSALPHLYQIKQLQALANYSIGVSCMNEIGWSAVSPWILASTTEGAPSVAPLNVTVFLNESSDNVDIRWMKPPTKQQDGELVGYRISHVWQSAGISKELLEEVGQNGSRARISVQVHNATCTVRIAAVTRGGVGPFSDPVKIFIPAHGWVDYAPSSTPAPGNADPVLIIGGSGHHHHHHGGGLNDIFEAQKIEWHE
Procedure, shortened: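 Anti-MerTK antibodies amine-coupled in duplicate on an HC30M chip; supernatants carrying MerTK/Axl domain-swap or deletion constructs diluted 1:1 in HBS-TE with 0.5 mg/mL BSA and injected over them. Regeneration with 10 mM glycine pH2.0; loss or gain of binding used to map antibody domain epitopes.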

[3] = target: T3, recombinant murine MerTK extracellular domain (mouse, UniProt Q60805 19-497); test: SPR Carterra LSA
T3 construct: also called Mouse MerTK; murine MerTK ECD; not shown: polyHis or TEVS/Thrombin/murine IgG2a-Fc tag
T3 sequence: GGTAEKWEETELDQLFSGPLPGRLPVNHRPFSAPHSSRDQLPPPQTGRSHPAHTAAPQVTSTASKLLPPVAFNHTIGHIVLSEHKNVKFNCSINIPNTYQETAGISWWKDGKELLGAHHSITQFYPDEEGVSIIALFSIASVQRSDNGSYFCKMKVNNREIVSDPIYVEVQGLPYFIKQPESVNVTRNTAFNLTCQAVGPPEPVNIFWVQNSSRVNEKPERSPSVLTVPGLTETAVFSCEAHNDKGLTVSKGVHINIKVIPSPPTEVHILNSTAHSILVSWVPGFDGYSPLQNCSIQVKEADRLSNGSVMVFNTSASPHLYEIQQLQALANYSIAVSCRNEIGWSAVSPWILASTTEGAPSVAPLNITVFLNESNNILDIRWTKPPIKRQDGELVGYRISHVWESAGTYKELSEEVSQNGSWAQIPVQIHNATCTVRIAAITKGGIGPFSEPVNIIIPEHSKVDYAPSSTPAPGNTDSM

B1: MTK-207 (antibody, human IgG1, V domains shown)
VH: QVQLKESGPGLVAPSQSLSITCTVSGISLTSYGVSWVRQPPGKGLEWLGIIWGDGSTNYHSALISRLSISKDNSKSQVFLKLNSLQTDDTATYYCAKGRYGNYEDWYFDVWGTGTTVTVSS
VL: DIQMTQSPASLSASVGETVTITCRASGNIHNYLAWYQQKQGKSPQLLVYNAKTLAAGVPSRFSGSGSGTQYSLKINSLQPEDFGSYYCQHFWSIPLTFGAGTKLELK
B1: binds [1].

B2: MTK-231 (antibody, human IgG1, V domains shown)
VH: DVQLQESGPGLVKPSQSLSLTCSVTGYSITSGYYWNWIRQFPGNKLEWMGYISYDGTYNYHPSLKNRISITRDTSKNQFFLTLNSVTTEDTATFYCTRGGGYWGQGTSVTVSS
VL: DVVMTQTPLSLPVSLGDQASISCRSSQSLVHSDGNTYLHWYLQKPGQSPKLLIYKVSNRFSGVPDRFSGSGSGTDFTLKISRLEAEDLGIYFCSQTTHIPLTFGSGTKLEIK
B2: binds [1]; no binding [2].

B3: MTK-211 (antibody, human IgG1, V domains shown)
VH: QVQLQQSGAELMKPGASVKLSCKATGYTFTGYWIEWVKQRPGHGLEWIGEILPGSGGSNYNEKFKGKATFTADTSSNTAYIQLSSLTTEDSAIYCCARGEPSYFSDAGFAYWGQGTLVTVSA
VL: QIVLTQSPAVMSASPGEKVTMTCSASSSITYMHWYQQKPGTSPKRWIYDTSKLASGVPARFSGSGSGTSYFLTISSMEAEDVATYYCHQRSTYPYTFGGGTKLEIM
B3: binds [1].

B4: MTK-213 (antibody, human IgG1, V domains shown)
VH: QVQLQQPGAELVKPGASVKMSCKASGYTFTSYWITWVKQRPGQGHEWIGEIYPGIGSTNYNEKFKSKATLTVDTSSRTAYMQLSSLTSEDSAVYFCARGAYTKYYFDYWGQGTTLTVSS
VL: DIVMTQSHKFMSTSVGDRVSITCKASQDVGDAVAWYQQKPGQTPKLLIYWASTRHTGVPDRFTGSGSGTDFTLTISNVQSEDLADYFCQQYSSYLMYTFGGGTKLEIK
In the case of B4, the binding result [1] is reported as “binds”, the “Ratio of KD for Mouse vs Human MerTK” value [3] is reported as 0.08 ratio and the binding result [2] is reported as “no binding”.

B5: MTK-214 (antibody, human IgG1, V domains shown)
VH: QVQLQQPGAELVKPGASVKVSCKASGYTFTNYWMHWMKQRPGQGLEWIGRIHPFDSDTNYNEKFTDKATLTVDKSSSTAYMQLSSLTSEDSAVYYCAIGTLIYWGQGTTLTASS
VL: DILLTQSPATLSVTPGETVSLSCRASQSIYKKLHWFQQRSHRSPRLLIKFASDSISGIPSRFTGSGSGTDYTLSINSVKPEDEAIYYCLQGYSTPLTFGAGTKLELK
For B5, the binding result [1] was “binds” and the “Ratio of KD for Mouse vs Human MerTK” value [3] was 32 ratio.

B6: MTK-224 (antibody, human IgG1, V domains shown)
VH: QVQLQQPGAELVKPGASVKVSCKASGYTFTSYWMHWVKQRPGQGLEWIGRIHPFDSDTNYNQKFKGKATLTVDKSSSTAYMQLSSLTSEDSAVYYCSIAGFAYWGQGTLVTVSA
VL: DIVMTQSPATLSVTPGDRVSLSCRASQIISDYLNWYQQKSHESPRLLIKYASQSISGIPSRFSGSGSGSDFTLSINSVEPEDVGVYYCQNGHSFPLTFGAGTKLELK
With B6 the binding result [1] was “binds” and the “Ratio of KD for Mouse vs Human MerTK” value [3] was 64.2 ratio.
